Target: E194, the type I interferon binding protein (IFNα/βBP) from ectromelia virus (ECTV) Naval strain (Ectromelia virus, strain Naval)
Experiment: SPR

B1: mouse IFNα subtype A (ligand)
chain: CDLPHTYNLRNKRALKVLAQMRRLPFLSCLKDRQDFGFPLEKVDNQQIQKAQAIPVLRDLTQQTLNLFTSKASSAAWNATLLDSFCNDLHQQLNDLQTCLMQQVGVQEPPLTQEDALLAVRKYFHRITVYLREKKHSPCAWEVVRAEVWRALSSSVNLLPRLSEEKE
koff: 0.000331 s⁻¹

From article PMC6303335 (2018)
